Kd data for 1 molecule are collected here from US10921309 (dated 2021).

The target of assay [1] is T1, OBn(GGS)2t-FhuA (barnase nanopore sensor) (Bacillus amyloliquefaciens / E. coli).
T1 chain: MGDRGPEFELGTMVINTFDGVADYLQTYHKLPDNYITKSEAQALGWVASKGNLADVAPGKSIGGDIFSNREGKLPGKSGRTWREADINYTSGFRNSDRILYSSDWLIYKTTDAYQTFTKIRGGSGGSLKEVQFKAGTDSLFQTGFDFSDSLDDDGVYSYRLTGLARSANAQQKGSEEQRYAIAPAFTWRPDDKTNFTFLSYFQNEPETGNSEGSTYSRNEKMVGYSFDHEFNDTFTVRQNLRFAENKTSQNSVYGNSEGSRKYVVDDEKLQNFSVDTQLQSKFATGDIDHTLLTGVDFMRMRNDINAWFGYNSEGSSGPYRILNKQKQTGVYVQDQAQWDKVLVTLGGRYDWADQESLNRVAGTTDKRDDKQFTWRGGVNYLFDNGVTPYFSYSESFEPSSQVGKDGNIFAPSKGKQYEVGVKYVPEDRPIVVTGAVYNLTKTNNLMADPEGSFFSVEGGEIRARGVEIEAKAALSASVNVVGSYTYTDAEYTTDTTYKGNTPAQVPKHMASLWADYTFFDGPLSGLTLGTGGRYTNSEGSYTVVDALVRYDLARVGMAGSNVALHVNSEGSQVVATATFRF
Kind of assay: other, single-molecule nanopore, high Bs concentration.

Assay [2] has as its target T1, OBn(GGS)2t-FhuA (barnase nanopore …). Kind of assay: other, single-molecule nanopore, 300 mM KCl, pH 8.
The target is the same in assay [3]. Kind of assay: other, single-molecule nanopore.

In general, Kd refers to a measure of binding affinity in units of concentration. Lower therefore signals a tighter complex.

B1: Barstar (Bs) (protein)
chain: MKKAVINGEQIRSISDLHQTLKKELALPEYYGENLDALWDALTGWVEYPLVLEWRQFEQSKQLTENGAESVLQVFREAKAEGADITIILS
For the molecule B1, the Kd is 0.082 µM in assay [1], 0.064 µM in assay [2] and 0.061 µM in assay [3].
